This note sets out measurements from patent US20200140562A1 (Innovent, published 2020).

The target of assay [1] is T1, human OX40 on cells (CHO-hOX40, 293HEK-hOX40, Jurkat-hOX40, activated primary CD4+ T cells) (human, UniProt P43489 29-277).
T1 construct: whole, on cells; The cell type is told in each assay; also called CHO-OX40
T1 sequence (looked up): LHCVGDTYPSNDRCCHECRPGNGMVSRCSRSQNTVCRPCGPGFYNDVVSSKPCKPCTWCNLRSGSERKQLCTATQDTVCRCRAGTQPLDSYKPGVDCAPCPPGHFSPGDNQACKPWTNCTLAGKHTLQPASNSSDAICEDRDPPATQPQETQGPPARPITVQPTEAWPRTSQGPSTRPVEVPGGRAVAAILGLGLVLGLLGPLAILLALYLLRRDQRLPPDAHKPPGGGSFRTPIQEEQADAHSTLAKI
Description: flow cytometry, CHO-hOX40. Background: In flow cytometry, cells or beads pass a laser one at a time.

The target in assay [2] is T1, human OX40 on cells (CHO-hOX40, …). Kind of assay: flow cytometry, CHO-hOX40, 100 nM.
The target is the same in assay [3]. Kind of assay: flow cytometry, CHO-hOX40, 200 nM.
Assay [4] has the same target. Kind of assay: flow cytometry, CHO-hOX40, 100 nM. The source holds these as a separate data set.
The target is the same in assay [5]. Kind of assay: flow cytometry, CHO-hOX40, 12.5 nM.
For assay [6] the target is unchanged. Description: flow cytometry, CHO-hOX40, 12.5 nM. The source holds these as a separate data set.
The target is the same in assay [7]. Description: flow cytometry, CHO-hOX40, 6.25 nM.
Assay [8] shares this target. Description: flow cytometry, CHO-hOX40, 3.125 nM.
The target is the same in assay [9]. Description: flow cytometry, CHO-hOX40, 3.125 nM. This is another data set of the same source.
The target is the same in assay [10]. Kind of assay: flow cytometry, CHO-hOX40, 1.5625 nM.
Assay [11] shares this target. Description: flow cytometry, CHO-hOX40, 0.78125 nM.
The target is the same in assay [12]. Kind of assay: flow cytometry, CHO-hOX40, 0.1953125 nM.
Assay [13] has the same target. Description: flow cytometry, CHO-hOX40, 0.09765625 nM.
Assay [14] has the same target. Kind of assay: flow cytometry, CHO-hOX40, 0.09765625 nM. This is another data set of the same source.
The target is the same in assay [15]. Kind of assay: flow cytometry, CHO-hOX40, 0.024414063 nM.
For assay [16] the target is unchanged. Description: flow cytometry, CHO-hOX40, 0.048828125 nM.
Assay [17] shares this target. Kind of assay: flow cytometry, CHO-hOX40, 0.024414063 nM. This is another data set of the same source.
The target is the same in assay [18]. Description: flow cytometry, CHO-hOX40, 0.048828125 nM. The source holds these as a separate data set.
For assay [19] the target is unchanged. Description: flow cytometry, CHO-hOX40, 100 nM blocker, competitor OX40L-hFc-fluorescein.
Assay [20] shares this target. Description: flow cytometry competition on CHO cells expressing human OX40; blocked ligand OX40L-mFc (60 ug/ml), detected with anti-murine Fc-FITC.

The term EC50 denotes the concentration giving half of the maximal effect.

B1: OX40L (control reagent; recombinant OX40L, Acro Biosystems) (ligand, UniProt P23510 51-183, looked up)
chain: QVSHRYPRIQSIKVQFTEYKKEKGFILTSQKEDEIMKVQNNSVIINCDGFYLISLKGYFSQEVNISLHYQKDEEPLFQLKKVRSVNSLMVASLTYKDKVYLNVTTDNTSLDDFHVNGGELILIHQNPGEFCVL
notes: may be the same reagent as OX40L-hFc
Take B1: the response in assay [1] was half-maximal at 5.33 nM (EC50). Besides, the MFI in [2] is 2.57e+06 MFI; in assay [3], 2.68e+06 MFI; in assay [4], 2.51e+06 MFI; in assay [5], 1.99e+06 MFI; in [6] it was 1.11e+06 MFI; in assay [7], 600000 MFI. For the same molecule, the MFI in [8] was found to be 932000 MFI; in [9], 342000 MFI; in [10] it was 554000 MFI; in assay [11] it was 86000 MFI; in assay [12], 83200 MFI; in [13] it was 35200 MFI. The MFI amounted to 14500 MFI in assay [14]; 12800 MFI in assay [15]; 34000 MFI in assay [16]; 7970 MFI in assay [17]; 8350 MFI in assay [18]. Also, the “MFI of OX40L signal on CHO-OX40 cells” value in assay [19] was 19300 MFI. In addition, in [20], the “IC50 (read off the curve)” value is about 20 nM.
